Measurements: publication PMC4334968

Columns and labels:
[1] = biological target: endogenous retromer (Vps26, Vps29, Vps35) (human (endogenous in HeLa and HaCaT)) (UniProt Q96QK1); experiment: proximity ligation
[2] = biological target: human retromer trimer assembled from Vps26, Vps29 and GST-tagged Vps35, Q96QK1;Q9UBQ0;O75436; experiment: pull-down on immobilized purified retromer trimer, anti-His immunoblot quantified; details: read off a plot

Substance | percent decrease of the PLA signal against wild-type PsV at eight hours [1] | ratio to parent ([2]; 5 µM MBP-L2, parent: est. 0.18) | ratio to parent ([2]; 10 µM MBP-L2, parent: est. 1.0)
HPV16 L2 double mutant (FYL/AAA and YYML/AAAA) with a carboxy-terminal 3xFLAG tag, in pseudovirus (from UniProt P03107 1-473) (natural protein) | 70% | – | –
Maltose binding protein (MBP)-L2-6His fusion protein, wild-type HPV16 L2 amino acids 434-457 F446A; Y447A; L448A | – | 0.2 | 0.28
Maltose binding protein (MBP)-L2-6His fusion protein, wild-type HPV16 L2 amino acids 434-457 F446A; Y447A; L448A; Y452A; Y453A; M454A; L455A | – | 0.17 | 0.21
Maltose binding protein (MBP)-L2-6His fusion protein, wild-type HPV16 L2 amino acids 434-457 Y452A; Y453A; M454A; L455A | – | 0.29 | 0.38
